The target in assay [1] is T1, human DR4 (Death Receptor 4), cell surface expressed on human tumor cell lines (human, UniProt O00220 24-468).
T1 construct: also called TNFRSF10A; TRAIL-R1
T1 sequence: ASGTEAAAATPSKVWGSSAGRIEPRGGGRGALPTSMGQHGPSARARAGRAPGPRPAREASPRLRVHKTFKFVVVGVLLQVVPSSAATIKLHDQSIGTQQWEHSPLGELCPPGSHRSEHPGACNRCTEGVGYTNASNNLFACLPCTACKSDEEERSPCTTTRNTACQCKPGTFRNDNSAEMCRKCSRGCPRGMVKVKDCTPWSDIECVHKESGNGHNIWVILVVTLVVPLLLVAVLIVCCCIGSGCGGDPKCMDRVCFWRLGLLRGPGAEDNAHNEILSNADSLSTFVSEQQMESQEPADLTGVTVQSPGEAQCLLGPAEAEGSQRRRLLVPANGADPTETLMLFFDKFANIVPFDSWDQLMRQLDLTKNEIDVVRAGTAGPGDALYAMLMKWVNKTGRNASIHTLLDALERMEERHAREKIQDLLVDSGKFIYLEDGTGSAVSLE
The assay can be described thus: flow cytometry, PANC-1 cells, n = 1.

In assay [2] the target is T1, human DR4 (Death Receptor 4), cell …. The experiment in a line: flow cytometry, PANC-1 cells, n = 2.
Assay [3] addresses T2, human FAPα (Fibroblast activation protein alpha), cell surface expressed (human, UniProt Q12884 1-760).
T2 construct: Endogenous on human lung fibroblasts and CAFs
T2 sequence: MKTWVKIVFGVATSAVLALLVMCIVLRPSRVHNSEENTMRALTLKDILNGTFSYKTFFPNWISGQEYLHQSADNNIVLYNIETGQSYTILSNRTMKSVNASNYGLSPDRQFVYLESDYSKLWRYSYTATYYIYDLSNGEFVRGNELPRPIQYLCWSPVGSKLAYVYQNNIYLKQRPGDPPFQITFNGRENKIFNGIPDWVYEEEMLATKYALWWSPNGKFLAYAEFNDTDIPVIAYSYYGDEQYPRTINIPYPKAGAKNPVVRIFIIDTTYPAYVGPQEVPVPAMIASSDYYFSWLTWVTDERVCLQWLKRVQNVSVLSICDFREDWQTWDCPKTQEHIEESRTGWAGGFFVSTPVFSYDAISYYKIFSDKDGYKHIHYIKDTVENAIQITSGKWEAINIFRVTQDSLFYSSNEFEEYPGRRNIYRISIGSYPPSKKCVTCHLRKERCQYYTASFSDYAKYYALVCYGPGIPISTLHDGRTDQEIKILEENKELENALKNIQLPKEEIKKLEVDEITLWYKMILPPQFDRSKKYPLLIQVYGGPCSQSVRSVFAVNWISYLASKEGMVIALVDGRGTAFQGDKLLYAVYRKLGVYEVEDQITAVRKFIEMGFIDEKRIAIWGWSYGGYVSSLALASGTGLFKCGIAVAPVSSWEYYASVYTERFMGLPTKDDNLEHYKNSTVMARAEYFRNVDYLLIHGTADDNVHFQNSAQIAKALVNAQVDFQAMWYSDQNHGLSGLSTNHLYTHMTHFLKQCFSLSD
The assay can be described thus: flow cytometry, human lung fibroblasts, n = 3. As for the experimental part: Binding of bispecific or monoclonal antibodies carrying the anti-FAPα arm derived from IgG1-FAPα-FERL (BisG1-FAPα-FERL/DR4-FERR, BisG1-FAPα-FERL/b12-FERR, and IgG1-FAPα-FERL) to cell surface expressed human FAPα was analyzed by flow cytometry using human lung fibroblasts and CAFs, which endogenously express FAPα. BisG1-b12-FERL/b12-FERR was used as negative control.
Human lung fibroblasts and CAFs (50,000 cells/well) were seeded in 96-Well round bottom plates (Greiner Bio-one, Cat #650101). Antibody dilutions were prepared using fluorescence-activated cell sorting (FACS) buffer, consisting of phosphate buffer saline (PBS, Lonza, Cat #BE17-517Q)+1% Bovine Serum Albumin (BSA, Roche, Cat #10735086001)+0.02% Sodium Azide (Bio-World, Cat #41920044-3). Plates were centrifuged, supernatant was removed, cells were resuspended in 50 μL of human Fc Block (BD, Cat #564220, diluted 1:100 in FACS buffer) and 50 μL of viability stain TO-PRO-3 Iodide (Thermo Fisher, Cat #T3605, diluted 1: 25,000 in FACS buffer), and incubated for 15 min at 4° C. Plates were washed three times with FACS buffer. Plates were centrifuged, supernatant was removed, cells were resuspended in 50 μL of antibody dilutions (concentration range 90-0.0005 μg/mL, three-fold dilution steps using FACS buffer) of BisG1-FAPα-FERL/DR4-FERR, BisG1-FAPα-FERL/b12-FERR, BisG1-b12-FERL/b12-FERR (top six concentrations only for CAFs culture) or IgG1-FAPα-FERL (top four concentrations only for CAFs culture) and incubated for 30 min at 4° C. Cells were washed three times with FACS buffer and resuspended in 50 μL of Fluorescein isothiocyanate (FITC)-labeled polyclonal antibody goat anti-mouse IgG1 (Jackson Immuno Research, Cat #109-096-097, diluted 1:100 in FACS buffer). […] Antibody binding to viable cells (TO-PRO-3 negative) was analyzed by flow cytometry on a FACSCelesta™ (BD biosciences) and data were processed using FlowJo_v10.8.1 (FlowJo LLC). Geomean fluorescence intensity, gMFI, was determined and visualized using GraphPad Prism.

Residue numbers refer to the chain shown, from its start.

B1: IgG1-DR4-FERR (antibody, V domains shown)
VH: QVQLQESGPGLVKPSGTLSLTCAVSGGSISSYSWWSWIRQPPGKGLEWIGELYHSGSTNYNPSLKSRVTISVDKSKNQFSLKLRSVTAADTAVYYCVRGVATIDYWGQGTLVTVSS
VL: QSALTQPPSASGSPGQSVTISCTGTSSDVGGYNFVSWYQQDPGKAPKLLIYEVTKRPSGVPDRFSGSKSGNTASLTVSGLQAEDEADYYCSSYAGSNNVMFGGGTKLTVLG
notes: Bivalent monoclonal IgG1 lambda
As to B1, the results for the EC50 in assay [1] and in assay [2] were 0.68 µg/mL and 0.4 µg/mL, respectively.

B2: BisG1-FAPα-FERL/DR4-FERR (bispecific antibody, human IgG1, kappa, lambda)
heavy 1: EVQLLESGGGLVQPGGSPRLSCEASGFTFSSYALSWVRQAPGKGLEWVSAISGSGGGRYYADSVKGRFTISRDNSKNTLFLQMNSLRAEDTAVYYCAKEGYSSSGTYWDHWGQGTLVTVSSASTKGPSVFPLAPSSKSTSGGTAALGCLVKDYFPEPVTVSWNSGALTSGVHTFPAVLQSSGLYSLSSVVTVPSSSLGTQTYICNVNHKPSNTKVDKRVEPKSCDKTHTCPPCPAPEFERGPSVFLFPPKPKDTLMISRTPEVTCVVVDVSHEDPEVKFNWYVDGVEVHNAKTKPREEQYNSTYRVVSVLTVLHQDWLNGKEYKCKVSNKALPAPIEKTISKAKGQPREPQVYTLPPSREEMTKNQVSLTCLVKGFYPSDIAVEWESNGQPENNYKTTPPVLDSDGSFLLYSKLTVDKSRWQQGNVFSCSVMHEALHNHYTQKSLSLSPG
light 1: AIQMTQSPSSVSASVGDRVTITCRASQGVSSWLAWYQQKPGRAPKLLIYVASTLQSGVPSRFSGSGSGTDFTLTINSLQPEDFATYYCQQANSFPPTFGQGTRLEMKRTVAAPSVFIFPPSDEQLKSGTASVVCLLNNFYPREAKVQWKVDNALQSGNSQESVTEQDSKDSTYSLSSTLTLSKADYEKHKVYACEVTHQGLSSPVTKSFNRGEC
heavy 2: QVQLQESGPGLVKPSGTLSLTCAVSGGSISSYSWWSWIRQPPGKGLEWIGELYHSGSTNYNPSLKSRVTISVDKSKNQFSLKLRSVTAADTAVYYCVRGVATIDYWGQGTLVTVSSASTKGPSVFPLAPSSKSTSGGTAALGCLVKDYFPEPVTVSWNSGALTSGVHTFPAVLQSSGLYSLSSVVTVPSSSLGTQTYICNVNHKPSNTKVDKRVEPKSCDKTHTCPPCPAPEFERGPSVFLFPPKPKDTLMISRTPEVTCVVVDVSHEDPEVKFNWYVDGVEVHNAKTKPREEQYNSTYRVVSVLTVLHQDWLNGKEYKCKVSNKALPAPIEKTISKAKGQPREPQVYTLPPSREEMTKNQVSLTCLVKGFYPSDIAVEWESNGQPENNYKTTPPVLDSDGSFFLYSRLTVDKSRWQQGNVFSCSVMHEALHNHYTQKSLSLSPG
light 2: QSALTQPPSASGSPGQSVTISCTGTSSDVGGYNFVSWYQQDPGKAPKLLIYEVTKRPSGVPDRFSGSKSGNTASLTVSGLQAEDEADYYCSSYAGSNNVMFGGGTKLTVLGQPKAAPSVTLFPPSSEELQANKATLVCLISDFYPGAVTVAWKADSSPVKAGVETTTPSKQSNNKYAASSYLSLTPEQWKSHRSYSCQVTHEGSTVEKTVAPTECS
notes: Human IgG1 bispecific made by controlled Fab-arm exchange of IgG1-FAPα-FERL and IgG1-DR4-FERR; monovalent for FAPα and for DR4; also called GEN1057
Regarding B2, the EC50 in assay [1] amounted to 1.8 µg/mL; in assay [2] it was 1.89 µg/mL; in assay [3] it was 0.059 µg/mL.

B3: BisG1-b12-FERL/DR4-FERR (bispecific antibody, human IgG1, kappa, lambda)
heavy 1: QVQLVQSGAEVKKPGASVKVSCQASGYRFSNFVIHWVRQAPGQRFEWMGWINPYNGNKEFSAKFQDRVTFTADTSANTAYMELRSLRSADTAVYYCARVGPYSWDDSPQDNYYMDVWGKGTTVIVSSASTKGPSVFPLAPSSKSTSGGTAALGCLVKDYFPEPVTVSWNSGALTSGVHTFPAVLQSSGLYSLSSVVTVPSSSLGTQTYICNVNHKPSNTKVDKRVEPKSCDKTHTCPPCPAPEFERGPSVFLFPPKPKDTLMISRTPEVTCVVVDVSHEDPEVKFNWYVDGVEVHNAKTKPREEQYNSTYRVVSVLTVLHQDWLNGKEYKCKVSNKALPAPIEKTISKAKGQPREPQVYTLPPSREEMTKNQVSLTCLVKGFYPSDIAVEWESNGQPENNYKTTPPVLDSDGSFLLYSKLTVDKSRWQQGNVFSCSVMHEALHNHYTQKSLSLSPG
light 1: EIVLTQSPGTLSLSPGERATFSCRSSHSIRSRRVAWYQHKPGQAPRLVIHGVSNRASGISDRFSGSGSGTDFTLTITRVEPEDFALYYCQVYGASSYTFGQGTKLERKRTVAAPSVFIFPPSDEQLKSGTASVVCLLNNFYPREAKVQWKVDNALQSGNSQESVTEQDSKDSTYSLSSTLTLSKADYEKHKVYACEVTHQGLSSPVTKSFNRGEC
heavy 2: B2 heavy 2
light 2: B2 light 2
notes: Fab-arm exchange of IgG1-b12-FERL and IgG1-DR4-FERR; also called bsIgG1-ctrl-FERLxDR4-FERR
As for B3, the 50% effective concentration (EC50) in assay [1] was 1.35 µg/mL; in assay [2] it was 2.12 µg/mL.

B4: IgG1-FAPα-FERL (antibody)
heavy: B2 heavy 1
light: B2 light 1
notes: Bivalent monoclonal IgG1 kappa
In assay [3], B4 came in with an EC50 of 0.022 µg/mL.

B5: BisG1-FAPα-FERL/b12-FERR (bispecific antibody, human IgG1, kappa)
heavy 1: B2 heavy 1
light 1: B2 light 1
heavy 2: B3 heavy 1 with L415F, K419R
light 2: B3 light 1
For the molecule B5, in assay [3], a half-maximal effect (EC50) was put at 0.048 µg/mL.

(Values after patent US20250002610A1 (Genmab, published 2025).)
